Measurements reported in patent US20150037312A1 (University of Washington, published 2015).

Target: T1, Rituximab (human IgG1), biotinylated (human)
T1 construct: Whole IgG; In the first screen it was oligomerized with streptavidin-phycoerythrin; in SPR it was captured on a streptavidin chip; also called Rituxan; IgG1 Rituxan
Test: titration of biotinylated Rituxan on yeast displaying the clone; pH 8 implied
Method: We then determined the Kd of exemplary isolated clones for IgG at different pHs. Measurements were taken via titrations of biotinylated Rituxan (Rituximab) using yeast surface display as discussed in the materials and methods sections.
Yeast cells (EBY100) containing plasmid encoding the designs, were grown overnight at 30° C. in SDCAA medium. For induction, they were sub-cultured into SGCAA to achieve an O.D. of 1, and grown at 22° C. for 16-20 h. Cells were washed once with PBS containing 0.5% BSA (PBS-BSA), before adding 700 nM biotinylated IgG (Rituximab) into a total volume of 50 μl of the same buffer. […] Cells were washed once with ice cold PBS-BSA immediately before measuring their fluorescence via an Accuri C6 flow cytometer, data was analyzed using the FlowJo 7.6.1 and 8.8.7 software.

Kd: ~2 nM
B1: FcB6.1 (designed binder)
chain: PEEALIVVDMQRDFMPGGALPVPEGDKIIPKVNEYIRKFKEKGALIVATRDWHPENHISFRERGGPWPRHCVQNTPGAEFVVDLPEDAVIISKATEPDKEAYSGFEGTDLAKILRGNGVKRVYICGVATEYCVSRTAVDALKHGFEVYLLRDAVKGIKPTFEQQSFFYMSLKGIKIVQF
notes: Clone from the pH 8 selection of the focused library; also called Fc24.47
